Experiment [1] deals with T1, EphA3 expressed on the surface of B16 mouse melanoma cells (mouse, UniProt P29319 21-983).
T1 construct: whole, on cells; Endogenous EphA3 of a tumor cell line known to express EphA3; also called B16-F10
T1 sequence (looked up): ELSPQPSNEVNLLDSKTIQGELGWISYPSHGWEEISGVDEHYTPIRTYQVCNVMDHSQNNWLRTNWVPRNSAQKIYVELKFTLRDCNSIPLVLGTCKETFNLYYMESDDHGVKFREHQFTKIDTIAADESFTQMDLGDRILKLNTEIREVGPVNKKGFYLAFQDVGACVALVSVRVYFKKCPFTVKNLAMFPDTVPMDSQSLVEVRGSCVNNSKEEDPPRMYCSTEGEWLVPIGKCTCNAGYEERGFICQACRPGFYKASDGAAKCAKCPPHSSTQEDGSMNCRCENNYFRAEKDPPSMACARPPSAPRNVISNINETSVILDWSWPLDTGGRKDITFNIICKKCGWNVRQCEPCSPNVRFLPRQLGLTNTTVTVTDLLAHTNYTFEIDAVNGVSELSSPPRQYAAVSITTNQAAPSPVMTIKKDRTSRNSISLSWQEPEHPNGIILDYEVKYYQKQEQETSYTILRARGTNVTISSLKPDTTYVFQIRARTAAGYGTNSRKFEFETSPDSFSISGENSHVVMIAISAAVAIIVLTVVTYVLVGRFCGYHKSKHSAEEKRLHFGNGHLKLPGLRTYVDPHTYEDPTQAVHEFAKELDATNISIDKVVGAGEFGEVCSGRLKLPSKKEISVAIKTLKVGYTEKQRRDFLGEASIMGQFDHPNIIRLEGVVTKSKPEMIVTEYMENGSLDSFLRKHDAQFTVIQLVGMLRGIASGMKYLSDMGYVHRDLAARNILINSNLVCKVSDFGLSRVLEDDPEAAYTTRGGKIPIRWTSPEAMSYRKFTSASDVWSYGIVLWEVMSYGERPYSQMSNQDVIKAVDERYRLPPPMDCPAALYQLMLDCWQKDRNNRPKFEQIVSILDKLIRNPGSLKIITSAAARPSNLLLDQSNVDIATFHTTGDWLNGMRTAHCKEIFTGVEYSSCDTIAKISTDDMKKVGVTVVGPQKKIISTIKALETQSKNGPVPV
The experiment can be described thus: flow cytometry on live B16 cells, 5 ug/ml IgG, anti-human IgG phycoerythrin conjugate [B16]. From the text: (§1) B16, SKme128, and LnCAP cells were blocked with 2% BSA and rat IgG and probed with engineered anti-EphA3 IgG, chimeric IIIA4 IgG or an isotype control IgG. Bound antibody was detected by an anti-human IgG Phycoerythrin conjugate using a Facs Caliber flow cytometry (BD). Dead cells were excluded by propidium iodide staining For each graph, the control antibody profile is the left-most curve shown in the graph.
(§2) Typically, 3×10⁶ cells of SKme128, LnCAP and B16-F10 were collected by centrifugation at 3000 rpm for 3 minutes. Media were removed and the cells blocked with 2% BSA in PBS for 30 minutes at 4° C. followed by a second block with 10 μg/ml rat IgG for 30 minutes at 4° C. Cells were pelleted, re-suspended in 1.5 ml PBS and divided into 500 μl aliquots. Each aliquot was probed separately with 5 μg/ml of control IgG, humaneered IgG or chimeric IIIA4 IgG for 45 minutes at 4° C. The samples were washed once in PBS and anti-human IgG-phycoerythrin-conjugate was added. After 45 minutes, cells were washed once, re-suspended in PBS and analyzed by flow cytometry using a FACS Caliber flow cytometery. Propidium iodide was added just prior to analysis to exclude dead cells.
(§3) The exemplary engineered antibody was also tested for binding to EphA3 expressed on the surface of live cells. […] Bound antibody was detected using flow cytometry by an anti-human IgG phycoerythrin conjugate (FIG. 5). […]
(In general: Flow cytometry measures light scatter and fluorescence of single cells or particles in a stream.)

In experiment [2] the target is T2, EphA3-Fc recombinant fusion protein (UniProt P29320 21-541, limits assumed).
T2 construct: also called the antigen
T2 sequence (looked up): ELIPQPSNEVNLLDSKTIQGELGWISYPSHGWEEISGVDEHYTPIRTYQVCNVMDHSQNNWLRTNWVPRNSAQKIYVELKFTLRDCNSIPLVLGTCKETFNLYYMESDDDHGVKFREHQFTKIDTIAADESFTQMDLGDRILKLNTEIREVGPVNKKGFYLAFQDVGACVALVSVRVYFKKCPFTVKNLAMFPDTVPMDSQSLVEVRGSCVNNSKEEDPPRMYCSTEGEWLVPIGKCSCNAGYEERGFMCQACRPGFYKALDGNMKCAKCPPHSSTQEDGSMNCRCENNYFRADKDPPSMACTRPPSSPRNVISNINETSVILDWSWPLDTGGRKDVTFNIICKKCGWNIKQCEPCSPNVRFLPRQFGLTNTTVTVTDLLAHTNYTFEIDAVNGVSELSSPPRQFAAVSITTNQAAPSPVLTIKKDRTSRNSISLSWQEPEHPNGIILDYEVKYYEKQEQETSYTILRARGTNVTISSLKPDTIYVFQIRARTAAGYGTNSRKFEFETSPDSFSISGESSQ
As to the kind of experiment: ELISA, plate coated with EphA3-Fc, detection with anti-human kappa chain HRP conjugate, A450. An excerpt: A full-length antibody (IgG1κ) was constructed, expressed from CHO cells and purified by Protein A affinity chromatography. ELISA plates were coated with EphA3-Fc and binding of cIIIA4 IgG, an exemplary engineered IgG, and a control IgG1 were compared (FIG. 3). The EC₅₀ in this assay was approximately three-fold lower for the engineered IgG than for the original chimeric antibody.
For orientation: ELISA stands for enzyme-linked immunosorbent assay.

The target of experiment [3] is T3, EphA3 expressed on the surface of human cells (SKmel28 human melanoma, LnCAP prostate cancer line, primary … (human, UniProt P29320 21-983)).
T3 construct: whole, on cells; It gives no species for LnCAP, and the leukemia cells come from patients; also called SKme128; primary leukemia cells expressing EphA3
T3 sequence (looked up): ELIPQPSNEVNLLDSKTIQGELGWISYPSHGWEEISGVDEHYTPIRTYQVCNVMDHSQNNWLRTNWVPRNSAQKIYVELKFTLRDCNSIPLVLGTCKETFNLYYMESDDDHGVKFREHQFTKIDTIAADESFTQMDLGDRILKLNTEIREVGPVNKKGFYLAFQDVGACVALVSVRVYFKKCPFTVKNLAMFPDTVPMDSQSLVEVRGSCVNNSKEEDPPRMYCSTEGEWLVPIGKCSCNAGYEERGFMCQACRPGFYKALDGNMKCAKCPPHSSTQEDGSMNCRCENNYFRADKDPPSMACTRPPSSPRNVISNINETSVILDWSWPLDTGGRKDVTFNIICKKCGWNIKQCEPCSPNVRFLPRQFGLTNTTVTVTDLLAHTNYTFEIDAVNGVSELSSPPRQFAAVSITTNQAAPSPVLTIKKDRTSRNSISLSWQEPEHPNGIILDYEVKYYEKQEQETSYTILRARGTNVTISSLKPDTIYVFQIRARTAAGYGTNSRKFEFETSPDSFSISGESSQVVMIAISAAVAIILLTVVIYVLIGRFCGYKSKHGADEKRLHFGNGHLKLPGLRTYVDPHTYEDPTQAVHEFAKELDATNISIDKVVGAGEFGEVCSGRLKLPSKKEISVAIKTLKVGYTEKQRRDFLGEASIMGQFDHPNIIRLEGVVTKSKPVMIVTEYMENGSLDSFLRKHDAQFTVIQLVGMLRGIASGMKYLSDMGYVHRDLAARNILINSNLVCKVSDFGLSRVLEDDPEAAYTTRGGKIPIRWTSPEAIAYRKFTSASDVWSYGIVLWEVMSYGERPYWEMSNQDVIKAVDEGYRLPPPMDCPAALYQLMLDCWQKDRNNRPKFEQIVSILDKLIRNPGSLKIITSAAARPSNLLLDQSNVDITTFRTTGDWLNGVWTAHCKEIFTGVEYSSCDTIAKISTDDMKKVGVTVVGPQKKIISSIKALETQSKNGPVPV
As to the kind of experiment: flow cytometry on live SKmel-28 cells, 5 ug/ml IgG, anti-human IgG phycoerythrin conjugate [SKmel-28].
Source text: as §1, §2, §3

In experiment [4] the target is T2, EphA3-Fc recombinant fusion protein. As to the kind of experiment: SPR (Biacore), 25 C, low density surface, 1:1 model. As for the experimental part: (§4) Binding kinetics of two engineered Fabs and reference Fab FA106 were analyzed using a Biacore. The three Fabs were diluted from the starting concentration of 500 nM to 100 nM and further tested in a three-fold dilution series using PBS, pH 7.4 with 0.005% Tween-20 and 0.1 mg/ml BSA. Each of the five concentrations was tested three times over the three different density surfaces. Assays were run at 25° C. The response data from each surface were fit to a 1:1 interaction model.
(In general: Surface plasmon resonance follows binding to a sensor surface in real time, without labels.)

The target is the same in experiment [5]. As to the kind of experiment: SPR (Biacore), 25 C, high density surface, 1:1 model. The method, then: as §4
The target is the same in experiment [6]. As to the kind of experiment: SPR (Biacore), 25 C, medium density surface, 1:1 model. As for the experimental part: as §4
Experiment [7] has the same target. As to the kind of experiment: SPR (Biacore), 25 C, average of three surface densities, 1:1 model. The method, then:
as §4

The target is the same in experiment [8]. As to the kind of experiment: SPR (Biacore), 25 C, low density surface, 1:1 model; low chip density. As for the experimental part: as §4
Experiment [9] shares this target. The experiment can be described thus: SPR (Biacore), 25 C, high density surface, 1:1 model; high chip density. The method, then: as §4
For experiment [10] the target is unchanged. As to the kind of experiment: SPR (Biacore), 25 C, medium density surface, 1:1 model; medium chip density. The method, then:
as §4

By EC50 (read off the curve) is commonly meant the concentration at which the effect is half-maximal. As usually defined, the Kd is a measure of binding affinity in units of concentration. As usually defined, the kon is the rate constant with which the complex forms. As a reminder, the koff is the rate constant with which the complex falls apart.

B1: Chimeric IIIA4 IgG (antibody, V domains shown)
VH: EVKLEESGAELVKPGSSVKLSCKASGYNFTSYWINWVRLRPGQGLEWIGDIYPGSGNTNYDEKFKRKATLTVDTSSSTAYMQLSSLASEDSALYYCTRSGYYEDFDSWGQGTTLIVSS
VL: DIVLTQTPSSLSASLEERVSLTCRASQEISGYLGWLQQKPDGTIKRLIYAASTLDSGVPKKFSGNRSGSEYSLTISSLESEDFADYYCVQYANYPYTFGGGTKLEIK
notes: also called original chimeric antibody
For B1, the binding result in [1] and in experiment [3] was “binds” each time. Further, in [2], the “EC50 (read off the curve)” value is roughly 0.2 µg/mL.

B2: optimized reference Fab FA106 (Fab, V domains shown)
VH: EVKLEESGAELVKPGSSVKLSCKASGYNFTSYWINWVRLRPGQGLEWIGDIYPGSGNTNYDEKFKRKATLTVDTSSSTAYMQLSSLASEDTAVYYCARSGYYEDFDSWGQGTTVTVSS
VL: DIVLTQTPSSLSASLEERVSLTCRASQEISGYLGWLQQKPDGTIKRLIYAASTLDSGVPKKFSGNRSGSEYSLTISSLESEDFATYYCVQYANYPYTFGQGTKLEIK
notes: Fab derived from FA4 with several framework residues changed to human germ-line; Expressed in E. coli
On to B2, for which the Kd in [4] turned out to be 1.4 nM; in experiment [5], 2.06 nM; in experiment [6], 2.91 nM; in experiment [7], 2.1 nM. Besides, the kon in experiment [4] was 4.1e+06 M⁻¹ s⁻¹; in experiment [5], 1.67e+06 M⁻¹ s⁻¹; in experiment [6], 611000 M⁻¹ s⁻¹; in [7], 2e+06 M⁻¹ s⁻¹. The koff in experiment [7] was 0.003 s⁻¹; in experiment [8], 0.0058 s⁻¹; in [9], 0.00345 s⁻¹; in experiment [10] it was 0.00178 s⁻¹.

(Values after patent publication US20110123549A1 (KALOBIOS PHARMACEUTICALS, published 2011).)
